How the values were obtained:
[1] = molecular target: LKB1 (endogenous, in skeletal muscle and 3T3L1 adipocyte extracts) (UniProt Q9WTK7)
[2] = test system: 141 overlapping peptides (12-15 residues in length) corresponding to the LKB1 sequence
[3] = test system: His-LKB1 fusion protein (purified)

Fyn-CA, constitutively active Fyn mutant (pcDNA3.1-Fyn-CA(Y527F)-V5)
tyrosine phosphorylation of endogenous LKB1 immunoprecipitated from transfected tibialis anterior muscle (PY100 immunoblot) [1]: In the absence of Fyn-CA, there was a relatively low level of LKB1 tyrosine phosphorylation that was significantly increased by the expression of Fyn-CA

Fyn expressed from pcDNA3.1-Fyn-V5
tyrosine phosphorylation of LKB1 immunoprecipitates from 3T3L1 adipocytes (PY100 immunoblot) [1]: Immunoblotting of LKB1 immunoprecipitates with the PY100 phosphotyrosine antibody demonstrated Fyn-induced tyrosine phosphorylation of LKB1

recombinant His-FynT kinase (Calbiochem)
in vitro phosphorylation of an overlapping peptide array (Phosphosite Detector) [2]: This analysis identified five tyrosines (Y60, Y156, Y166, Y261, and Y365) as potential LKB1 phosphorylation acceptor sites for the Fyn kinase
tyrosine phosphorylation in an in vitro kinase reaction (PY100 phosphotyrosine immunoblot) [3]: purified His-LKB1-tagged fusion protein was tyrosine phosphorylated by purified recombinant Fyn kinase in vitro
